B1: mDRE (dsDNA)
DNA 1: AATTCAAAAGATATACTACTTTTATGAGTT
DNA 2: AACTCATAAAAGTAGTATATCTTTTGAATT
B2: wDRE (dsDNA)
DNA 1: AATTCAAAAGATATACTACCGACATGAGTT
DNA 2: AACTCATGTCGGTAGTATATCTTTTGAATT

Biological target: GST-RAP2.1 N-terminal 120 aa (AP2 DNA-binding domain) (UniProt Q8LC30 1-120)
Assay: EMSA; 100 ng probe, 5 or 10 ug protein; EMSA as in cited ref 42; buffer, salt, pH and temperature not given; 100 ng probe with 5 or 10 ug protein
Conditions: protein: recombinant; tags: GST (pGEX6P-1, N-terminal)

Sequence of GST-RAP2.1 N-terminal 120 aa (AP2 DNA-binding domain) (Q8LC30 1-120): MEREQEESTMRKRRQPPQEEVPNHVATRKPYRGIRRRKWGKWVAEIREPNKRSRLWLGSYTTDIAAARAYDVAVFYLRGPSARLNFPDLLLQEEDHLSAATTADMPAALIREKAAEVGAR

| Binder | binding result |
| --- | --- |
| B1 | no binding |
| B2 | binds |

Reference: publication PMC2848764, “The Arabidopsis EAR-motif-containing protein RAP2.1 functions as an active transcriptional repressor to keep stress responses under tight control”
